The values that follow come from publication PMC6005658 (2017).

Holding throughout (test): radioligand binding
For test [1], the target named is T1, arodyn analog 4 (staple 2-3; also: RCM olefin trans).
T1 chain: Ac-F[Tyr(All)][Tyr(All)]RLRRIRPK-NH2

The target in test [2] is T2, arodyn analog 5.
T2 chain: Ac-[Tyr(All)]FFRLRRIRPK-NH2

For test [3], the target named is T3, arodyn analog 7 (SMILES …).
T3 chain: Ac-FF[Tyr(All)]RLRRIRPK-NH2

The target in test [4] is T4, arodyn analog 3 (staple 1-2; also: RCM olefin trans).
T4 chain: Ac-[Tyr(All)][Tyr(All)]FRLRRIRPK-NH2

For test [5], the target named is T5, arodyn analog 6 (SMILES …).
T5 chain: Ac-F[Tyr(All)]FRLRRIRPK-NH2

Test [6] deals with T1, arodyn analog 4.
For test [7], the target named is T2, arodyn analog 5.
Test [8] addresses T3, arodyn analog 7.
Test [9] has as its target T4, arodyn analog 3.
For test [10], the target named is T5, arodyn analog 6.

Where two headings read alike, the source gives them in different places. *1 amine or outer side, *2 acyl side, *3 side chain or, on linkers, in order; H or OH if unused. Bridges are numbered along the chain shown (N, C = ends). [ ]: non-standard residue; d: D form. Tyr(All) = C=CCOc1ccc(C[C@H](N[*:1])C(=O)[*:2])cc1

B1: μ opioid receptor (protein)
chain: MDSSTGPGNTSDCSDPLAQASCSPAPGSWLNLSHVDGNQSDPCGLNRTGLGGNDSLCPQTGSPSMVTAITIMALYSIVCVVGLFGNFLVMYVIVRYTKMKTATNIYIFNLALADALATSTLPFQSVNYLMGTWPFGTILCKIVISIDYYNMFTSIFTLCTMSVDRYIAVCHPVKALDFRTPRNAKIVNVCNWILSSAIGLPVMFMATTKYRQGSIDCTLTFSHPTWYWENLLKICVFIFAFIMPVLIITVCYGLMILRLKSVRMLSGSKEKDRNLRRITRMVLVVVAVFIVCWTPIHIYVIIKALITIPETTFQTVSWHFCIALGYTNSCLNPVLYAFLDENFKRCFREFCIPTSSTIEQQNSTRVRQNTREHPSTANTVDRTNHQLENLEAETAPLP
As usually defined, the Ki is the dissociation constant of the complex between target and ligand, obtained from inhibition or displacement. A high value points to a looser hold on the target. For the molecule B1, the Ki was found to be 0.903 µM in [1]; 1.17 µM in [2]; 1.43 µM in test [3]; 1.92 µM in test [4]; 1.46 µM in [5].

B2: κ opioid receptor (protein)
chain: MESPIQIFRGEPGPTCAPSACLLPNSSSWFPNWAESDSNGSVGSEDQQLEPAHISPAIPVIITAVYSVVFVVGLVGNSLVMFVIIRYTKMKTATNIYIFNLALADALVTTTMPFQSAVYLMNSWPFGDVLCKIVISIDYYNMFTSIFTLTMMSVDRYIAVCHPVKALDFRTPLKAKIINICIWLLASSVGISAIVLGGTKVREDVDVIECSLQFPDDEYSWWDLFMKICVFVFAFVIPVLIIIVCYTLMILRLKSVRLLSGSREKDRNLRRITKLVLVVVAVFIICWTPIHIFILVEALGSTSHSTAVLSSYYFCIALGYTNSSLNPVLYAFLDENFKRCFRDFCFPIKMRMERQSTNRVRNTVQDPASMRDVGGMNKPV
For B2, the Ki in [6] worked out at 0.0554 µM; in test [7] it was 0.0833 µM; in test [8] it was 0.134 µM; in test [9], 0.0717 µM; in test [10], 0.0663 µM.
